Assay results: publication PMC3239198
pKd, pKi: −log10 of the molar value. Where two headings read alike, the source gives them in different places.

Legend:
[1] = target: His-tagged TetR (Tet repressor) (UniProt P04483); test: competition EMSA
[2] = target: His-tagged TetR (Tet repressor) (UniProt P04483); test: competition EMSA; remark: listed apart in the source
[3] = target: His-tagged TetR (Tet repressor) (UniProt P04483); test: EMSA

His-tagged TetR (Tet repressor), sequence (P04483 whole entry): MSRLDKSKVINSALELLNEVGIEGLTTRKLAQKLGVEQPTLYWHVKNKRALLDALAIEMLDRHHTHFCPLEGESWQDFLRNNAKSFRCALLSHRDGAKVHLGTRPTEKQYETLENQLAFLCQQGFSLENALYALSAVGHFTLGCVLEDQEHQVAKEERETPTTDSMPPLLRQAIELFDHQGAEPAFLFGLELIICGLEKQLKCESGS

Sequence	pKi [1]	pKi [2]	pKd [3]
GGGAGAUACGCGUAUCAAGCAGCAUGUUAUGGGUCAUCACAGACCAGAGAAAAGCUUGAUACGCGAAAGGAG [TetR aptamer 12-1R (pDA1), active]	7.24	7.12	
TTGACACTCTATCATTGATAGAGTTAT (double strand) [tetO dsDNA (ODA68/ODA69)]			7.22
